We go through four substances from PMC5806882, “Structural and biochemical characterization of the biuret hydrolase (BiuH) from the cyanuric acid catabolism pathway of Rhizobium leguminasorum bv. viciae 3841” (PLoS ONE, 2018).

Data set [1] concerns T1, NC(=O)NC(N)=O.
T1 construct: wild type, N-terminal 6xHis-tag
Nature of the data set: GDH-coupled steady-state kinetics (KM). The class given is biochemical, Rhizobium johnstonii. The following applies: active site.

The test system of data set [2] is NC(=O)NC(N)=O. Nature of the data set: GDH-coupled steady-state kinetics (KM). The class given is biochemical, Rhizobium johnstonii. The following applies: active site.

Chain of biuret hydrolase (BiuH) (Rhizobium johnstonii 3841; F41W) (chain, as listed by the source F41W): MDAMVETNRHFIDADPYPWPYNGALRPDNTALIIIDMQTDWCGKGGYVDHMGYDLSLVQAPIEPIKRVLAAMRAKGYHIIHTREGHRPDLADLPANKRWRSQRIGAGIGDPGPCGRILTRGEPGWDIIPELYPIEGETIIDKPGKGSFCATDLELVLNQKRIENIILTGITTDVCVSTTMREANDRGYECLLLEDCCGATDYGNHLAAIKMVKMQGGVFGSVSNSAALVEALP
Chain of biuret hydrolase (BiuH) (Rhizobium johnstonii 3841) (chain, as listed by the source): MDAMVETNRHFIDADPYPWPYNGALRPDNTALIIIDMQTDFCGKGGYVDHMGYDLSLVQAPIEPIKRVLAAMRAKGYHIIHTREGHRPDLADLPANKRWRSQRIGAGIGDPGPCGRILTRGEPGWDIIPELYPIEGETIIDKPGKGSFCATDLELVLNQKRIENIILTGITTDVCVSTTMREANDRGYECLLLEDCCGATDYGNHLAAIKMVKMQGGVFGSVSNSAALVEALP
Chain of biuret hydrolase (BiuH) (Rhizobium johnstonii 3841; K142R) (chain, as listed by the source K142R): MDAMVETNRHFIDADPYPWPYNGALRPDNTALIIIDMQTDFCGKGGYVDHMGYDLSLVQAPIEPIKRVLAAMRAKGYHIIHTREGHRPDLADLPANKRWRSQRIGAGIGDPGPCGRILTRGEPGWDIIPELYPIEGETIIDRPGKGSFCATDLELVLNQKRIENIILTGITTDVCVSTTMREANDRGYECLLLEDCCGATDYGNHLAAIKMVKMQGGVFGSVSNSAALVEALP
Chain of biuret hydrolase (BiuH) (Rhizobium johnstonii 3841; Q215N) (chain, as listed by the source Q215N): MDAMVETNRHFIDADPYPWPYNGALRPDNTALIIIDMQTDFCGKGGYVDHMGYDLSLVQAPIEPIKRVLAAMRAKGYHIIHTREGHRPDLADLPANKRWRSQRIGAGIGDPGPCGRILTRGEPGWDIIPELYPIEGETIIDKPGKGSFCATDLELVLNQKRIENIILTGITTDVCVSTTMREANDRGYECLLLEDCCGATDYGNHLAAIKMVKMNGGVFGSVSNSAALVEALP

As usually defined, the Km is the concentration of substrate that gives half-maximal velocity. By kcat is commonly meant the maximal rate divided by the concentration of active sites. The kcat/Km is the second-order rate constant that governs catalysis at low substrate concentration. In the case of “biuret hydrolase (BiuH) (Rhizobium johnstonii 3841)”, in data set [1], the Km is 79 ± 7 µM, the kcat was found to be 11.9 ± 0.3 s⁻¹ and the kcat/Km turned out to be 150000 M⁻¹ s⁻¹.
“biuret hydrolase (BiuH) (Rhizobium johnstonii 3841; F41W)”: in data set [2], the Km was 127 ± 8 µM, the kcat was 0.26 ± 0.003 s⁻¹ and the kcat/Km came to 2050 M⁻¹ s⁻¹.
For the substance “biuret hydrolase (BiuH) (Rhizobium johnstonii 3841; K142R)”, in data set [2], the Km was determined as 139 ± 8 µM, the kcat was 0.07 ± 0.001 s⁻¹ and the kcat/Km was 504 M⁻¹ s⁻¹.
On the same counts, the results for “biuret hydrolase (BiuH) (Rhizobium johnstonii 3841; Q215N)” are 48 ± 2 µM, 0.19 ± 0.002 s⁻¹ and 3960 M⁻¹ s⁻¹.
